This is an account of results in patent publication US20250019429A1 (Janssen / Centocor, published 2025).

Experiment [1] has as its target T1, recombinant human TNFα (human, UniProt P01375 77-233). The experiment in a line: cell-based or functional assay.
Experiment [2] addresses T1, recombinant human TNFα. The experiment in a line: inhibition of 125I-TNFα binding to plate-coated p55-sf2 by hybridoma supernatant. The protocol: (§1) Assay for Inhibition of TNF Binding to Receptor. […] 50:1 of p55-sf2 at 0.5: g/ml in PBS was added to Optiplates to coat the wells during a one-hour incubation at 37° C. Serial dilutions of the eight TNV cell supernatants were prepared in 96-well round-bottom plates using PBS/0.1% BSA as diluent. […] The mixture was preincubated for one hour at RT. […] After 2 hrs at RT, Optiplates were washed three times with PBS-Tween. […] of Microscint-20 was added and the cpm bound determined using the TopCount gamma counter.

For experiment [3], the target named is T1, recombinant human TNFα. The experiment in a line: competition: mAb in hybridoma supernatant preincubated with 125I-TNFα (5 ng/ml), then 125I-TNFα bound to plate-coated p55-sf2 counted as cpm. The protocol:
Although eight TNV mAb samples were tested in these experiments, for simplicity three of the mAbs that were shown by DNA sequence analyses to be identical to one of the other TNV mAbs (see Section 5.2.2) are not shown here. Each sample was tested in duplicate. The results shown are representative of two independent experiments.
as §1

B1: TNV148 (antibody, human IgG1, kappa, V domains shown)
VH: QVQLVESGGGVVQPGRSLRLSCAASGFIFSSYAMHWVRQAPGNGLEWVAFMSYDGSNKKYADSVKGRFTISRDNPKNTLYLQMNSLRAEDTAVYYCARDRGIAAGGNYYYYGMDVWGQGTTVTVSS
VL: EIVLTQSPATLSLSPGERATLSCRASQSVYSYLAWYQQKPGQAPRLLIYDASNRATGIPARFSGSGSGTDFTLTISSLEPEDFAVYYCQQRSNWPPFTFGPGTKVDIKR
notes: Hybridoma-derived fully human IgG1 kappa; also called GenTNV148.26.12; C420A
Regarding B1, the “neutralizing TNFα bioactivity” value in experiment [1] was 4 fold (against TNV14). Also, in experiment [2], the “fold better at blocking TNF binding, against TNV118 and TNV14” value is approximately 4 fold. In addition, the “IC50 (read off the curve)” value in experiment [3] was approximately 4 ng/mL.

B2: TNV86 (antibody, human IgG1, kappa, V domains shown)
VH: B1 VH
VL: B1 VL
notes: also called GenTNV86.14.34; C417A
B2: the “fold better at blocking TNF binding, against TNV118 and TNV14” value in experiment [2] was approximately 4 fold.
